Experimental data as given in US20140087995A1 (published 2014).
Numbered stars: 1 amine (or outer) side, 2 acyl side, 3 side chain; on linkers, the order of the positions; unused ones are H or OH. Bridge positions count the residues as written; N and C are the ends. Side chains are listed from the residue outwards. Ends that are not written are not given here. * marks the point of attachment. C20 diacid = O=C(O)CCCCCCCCCCCCCCCCCCC(=O)*; γGlu = O=C(O)[C@H](CCC(=O)[*:2])N[*:1]; AEEA = NCCOCCOCC(=O)O

T1: human calcitonin receptor (human, UniProt P30988 25-474)
T1 sequence (looked up): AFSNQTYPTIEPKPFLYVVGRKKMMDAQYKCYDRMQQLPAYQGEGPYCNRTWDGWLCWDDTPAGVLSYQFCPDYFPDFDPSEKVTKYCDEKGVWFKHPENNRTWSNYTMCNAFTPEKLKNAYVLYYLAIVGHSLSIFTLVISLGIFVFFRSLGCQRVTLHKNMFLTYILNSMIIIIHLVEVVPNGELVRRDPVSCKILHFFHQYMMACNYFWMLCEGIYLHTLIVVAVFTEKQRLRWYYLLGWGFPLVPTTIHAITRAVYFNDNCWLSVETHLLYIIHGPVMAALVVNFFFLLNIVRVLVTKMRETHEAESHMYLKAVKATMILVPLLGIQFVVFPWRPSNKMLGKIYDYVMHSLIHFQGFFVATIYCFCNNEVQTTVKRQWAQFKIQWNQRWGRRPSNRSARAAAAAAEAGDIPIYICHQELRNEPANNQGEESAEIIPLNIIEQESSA

T2: human amylin receptor (amylin 3(a) receptor: human calcitonin receptor co-expressed with RAMP-3) (human, UniProt P30988 25-474; O60896 24-148, limits assumed)
T2 sequence (looked up) 1: T1 sequence (looked up)
T2 sequence (looked up) 2: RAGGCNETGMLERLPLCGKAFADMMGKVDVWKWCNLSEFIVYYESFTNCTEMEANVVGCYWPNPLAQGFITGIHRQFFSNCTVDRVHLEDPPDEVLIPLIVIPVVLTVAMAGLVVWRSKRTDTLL

B1: N^ε1-[2-[2-[2-[[(4S)-4-carboxy-4-(19-carboxynonadecanoylamino)butanoyl]amino]ethoxy]ethoxy]acetyl]-[Arg17,Pro21,Pro27,Pro29,Pro31]-h-amylin (peptide)
peptide: K([AEEA-γGlu-C20 diacid])CNTATCATQRLANFLRHSSPNFGAIPSPTPVGSNTY-NH2
modifications: disulfide 2-7; N-terminus assumed
SMILES: CC[C@H](C)[C@H](NC(=O)[C@H](C)NC(=O)CNC(=O)[C@H](Cc1ccccc1)NC(=O)[C@H](CC(N)=O)NC(=O)[C@@H]1CCCN1C(=O)[C@H](CO)NC(=O)[C@H](CO)NC(=O)[C@H](Cc1c[nH]cn1)NC(=O)[C@H](CCCNC(=N)N)NC(=O)[C@H](CC(C)C)NC(=O)[C@H](Cc1ccccc1)NC(=O)[C@H](CC(N)=O)NC(=O)[C@H](C)NC(=O)[C@H](CC(C)C)NC(=O)[C@H](CCCNC(=N)N)NC(=O)[C@H](CCC(N)=O)NC(=O)[C@@H](NC(=O)[C@H](C)NC(=O)[C@@H]1CSSC[C@H](NC(=O)[C@@H](N)CCCCNC(=O)COCCOCCNC(=O)CC[C@H](NC(=O)CCCCCCCCCCCCCCCCCCC(=O)O)C(=O)O)C(=O)N[C@@H](CC(N)=O)C(=O)N[C@@H]([C@@H](C)O)C(=O)N[C@@H](C)C(=O)N[C@@H]([C@@H](C)O)C(=O)N1)[C@@H](C)O)C(=O)N1CCC[C@H]1C(=O)N[C@@H](CO)C(=O)N1CCC[C@H]1C(=O)N[C@H](C(=O)N1CCC[C@H]1C(=O)N[C@H](C(=O)NCC(=O)N[C@@H](CO)C(=O)N[C@@H](CC(N)=O)C(=O)N[C@H](C(=O)N[C@@H](Cc1ccc(O)cc1)C(N)=O)[C@@H](C)O)C(C)C)[C@@H](C)O
notes: also called compound 54
B2: N^ε1-[2-[2-[2-[[(4S)-4-carboxy-4-(19-carboxynonadecanoylamino)butanoyl]amino]ethoxy]ethoxy]acetyl]-[Arg17,Pro21,Pro27,Pro29,Pro34]-h-amylin (peptide)
peptide: K([AEEA-γGlu-C20 diacid])CNTATCATQRLANFLRHSSPNFGAIPSPTNVGPNTY-NH2
modifications: disulfide 2-7; N-terminus assumed
SMILES: CC[C@H](C)[C@H](NC(=O)[C@H](C)NC(=O)CNC(=O)[C@H](Cc1ccccc1)NC(=O)[C@H](CC(N)=O)NC(=O)[C@@H]1CCCN1C(=O)[C@H](CO)NC(=O)[C@H](CO)NC(=O)[C@H](Cc1c[nH]cn1)NC(=O)[C@H](CCCNC(=N)N)NC(=O)[C@H](CC(C)C)NC(=O)[C@H](Cc1ccccc1)NC(=O)[C@H](CC(N)=O)NC(=O)[C@H](C)NC(=O)[C@H](CC(C)C)NC(=O)[C@H](CCCNC(=N)N)NC(=O)[C@H](CCC(N)=O)NC(=O)[C@@H](NC(=O)[C@H](C)NC(=O)[C@@H]1CSSC[C@H](NC(=O)[C@@H](N)CCCCNC(=O)COCCOCCNC(=O)CC[C@H](NC(=O)CCCCCCCCCCCCCCCCCCC(=O)O)C(=O)O)C(=O)N[C@@H](CC(N)=O)C(=O)N[C@@H]([C@@H](C)O)C(=O)N[C@@H](C)C(=O)N[C@@H]([C@@H](C)O)C(=O)N1)[C@@H](C)O)C(=O)N1CCC[C@H]1C(=O)N[C@@H](CO)C(=O)N1CCC[C@H]1C(=O)N[C@H](C(=O)N[C@@H](CC(N)=O)C(=O)N[C@H](C(=O)NCC(=O)N1CCC[C@H]1C(=O)N[C@@H](CC(N)=O)C(=O)N[C@H](C(=O)N[C@@H](Cc1ccc(O)cc1)C(N)=O)[C@@H](C)O)C(C)C)[C@@H](C)O
notes: also called compound 56

Columns and labels:
[1] = target: T1, human calcitonin receptor; assay: cell-based or functional assay
[2] = target: T2, human amylin receptor (amylin 3(a) …); assay: cell-based or functional assay

| Binder | Ratio hCT/hAmylin funct. (hCTR EC50 against hAmylin-R EC50) [1] | hCTR funct. EC50 [1] | hAmylin-R funct. EC50 [2] |
| --- | --- | --- | --- |
| B1 | 9.6 | 987 pM | 103 pM |
| B2 | 5 | 506 pM | 102 pM |
